Results published in US20140206628A1 (University of Washington, published 2014).
Read-outs that look alike come from different tables or passages of the source.

Columns and labels:
[1] = target: T1, A/South Carolina/1/1918 (H1N1) hemagglutinin ectodomain, biotinylated (Influenza A virus A/South …)
[2] = target: T1, A/South Carolina/1/1918 (H1N1) …; remark: listed apart in the source
[3] = target: T1, A/South Carolina/1/1918 (H1N1) …; remark: listed apart in the source
[4] = target: T1, A/South Carolina/1/1918 (H1N1) …; remark: listed apart in the source

Binder | Kd [1] | Kd [2] | fold increase of binding affinity relative to HB36 [3] | Kd [4]
HB80.1 (Met26Thr, Asn36Lys) (designed binder) MASTRGSGRPWDFSENLAFELALAFTNKDTPDRWAKVAQYVSGRTPEEVKKHYEILVEDIKYIESGKVPFPNYRTTGGNMKTDEKRFRNLKIRLE | 7.5 nM | 7.5 nM | – | –
HB36.1 (Asp47Ser) (designed binder) MSNAMDGQQLNRLLLEWIGAWDPFGLGKDAYDVEAEAVLQAVYETESAFDLAMRIMWIYAFAFNRPIPFPHAQKLARRLLELKQAASSPLPLE | 5 nM | – | ~40 fold | 2 to 5 nM
